According to patent US6476190:

Columns and labels:
[1] = tested on: 2-aminobenzoyl-Thr-Ile-Nle-Phe(p-NO2)-Gln-Arg-NH2 (SEQ. ID NO. 4)
[2] = tested on: Ac-Thr-Ile-Nle-Nle-Gln-Arg-NH2 (SEQ ID NO 1)

Substance | fluorogenic assay (fluorescence against time of incubation) [1] | cleavage of the peptide substrate (reverse phase HPLC; products identified by ion spray mass spectrometry) [2]
{Aba^67,95,167,195} HIV-1 PR | showed identical activities | 
[(NHCH2COSCH2CO)^51-52 Aba^67,95] HIV-1 PR | showed identical activities | The peptide products were identified by ion spray mass spectrometry as (H)-Nle-Gln-Arg. NH2 (early eluting) and Ac-Thr-Ile-Nle-(OH) (late eluting)
